This is an account of results in patent publication US20240174741A1 (IMMUNOME, published 2024).

Assay [1] deals with T1, human interleukin-38 (IL-38) (human, UniProt Q8WWZ1 1-152).
T1 construct: The Adipogen protein is called full length; also called IL1F10/IL38; IL1F10
T1 sequence (looked up): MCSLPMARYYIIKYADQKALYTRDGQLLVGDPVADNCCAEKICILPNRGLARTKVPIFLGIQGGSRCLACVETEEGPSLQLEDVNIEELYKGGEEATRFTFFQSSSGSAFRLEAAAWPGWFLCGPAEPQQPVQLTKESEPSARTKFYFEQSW
Briefly: SPR, IMM20130 captured on anti-human Fc CM5 chip, IL-38 as analyte, 25 C, 1:1 model. The procedure:
Binding of IMM20130 to IL-38 (NovusBio, catalog number NBP2-22645) was quantified by surface plasmon resonance (SPR). Briefly, IMM20130 was diluted in SPR running buffer (10 mM HEPES, pH7.4, 150 mM NaCl, 0.0005% Tween-20, 0.2% bovine serum albumin) to final concentrations of 150 nM and 25 nM and captured at four different surface densities on an anti-human Fc coated CM5 sensor chip. Surface densities ranged from 600 to 3200 RU. IL-38 (NovusBio, catalog number NBP2-22645) was diluted in SPR running buffer to a concentration of 600 nM and a 3-fold dilution series was run across the four different IMM20130 density surfaces. Data were collected at 25° C. Data from all four surfaces were fitted to a 1:1 interaction model yielding the rate constants depicted in Table 2.
A general note: In SPR one partner is held on a chip, and binding of the other changes the refractive index at the surface.

For assay [2], the target named is T2, IL-1α (human, UniProt P01583 1-271, limits assumed).
T2 sequence (looked up): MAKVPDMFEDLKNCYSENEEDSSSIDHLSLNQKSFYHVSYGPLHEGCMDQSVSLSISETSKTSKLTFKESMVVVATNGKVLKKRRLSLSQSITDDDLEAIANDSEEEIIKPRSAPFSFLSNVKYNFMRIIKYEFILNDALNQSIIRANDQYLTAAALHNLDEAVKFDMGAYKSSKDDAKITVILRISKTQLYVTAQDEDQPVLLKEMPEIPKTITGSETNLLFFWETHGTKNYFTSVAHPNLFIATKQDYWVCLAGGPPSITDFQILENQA
In words: CDI HuProt native protein microarray. As to the method: (§1) To confirm specificity to IL-38, several lead candidate antibodies (CD1-M3, CD1-M8, NZB-M8) were analyzed in a High-Spec Cross-reactivity Assay using native HuProt arrays (CDI Laboratories). […] of antibody was incubated overnight in a cold room, washed, and probed with anti-human secondary antibodies. Fluorescence intensity (F635) as an indicator of binding was measured for each spot. CDI software quantified the specificity of the antibody to each spot based on a Z-score. Z-score is defined as [F635−(Average F635 on array)]/(Standard deviation of F635 on array). S-score is defined as the difference between the Z-score of a given protein and the Z-score of the next highest protein.

Assay [3] addresses T3, IL-1β (human, UniProt P01584 1-269, limits assumed). Briefly: CDI HuProt native protein microarray. As to the method:
as §1

The target of assay [4] is T4, IL-1Ra (human, UniProt P18510 26-177, limits assumed). Briefly: CDI HuProt native protein microarray. The procedure: as §1
T4 sequence (P18510 26-177 limits assumed): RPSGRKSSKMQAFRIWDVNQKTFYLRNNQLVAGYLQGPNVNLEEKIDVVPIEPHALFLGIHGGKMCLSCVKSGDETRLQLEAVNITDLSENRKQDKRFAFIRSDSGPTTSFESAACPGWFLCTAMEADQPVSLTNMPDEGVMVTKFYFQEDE
In assay [5] the target is T5, IL-18 (human, UniProt Q14116 1-193, limits assumed).
T5 sequence (looked up): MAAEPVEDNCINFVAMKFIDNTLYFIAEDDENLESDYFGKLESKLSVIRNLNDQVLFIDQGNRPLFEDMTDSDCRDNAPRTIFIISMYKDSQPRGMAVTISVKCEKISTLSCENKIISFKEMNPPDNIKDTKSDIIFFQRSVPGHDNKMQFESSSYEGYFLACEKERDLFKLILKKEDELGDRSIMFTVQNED
Briefly: CDI HuProt native protein microarray. As to the method:
as §1

Assay [6] concerns the target T6, IL-36Ra (human, UniProt Q9UBH0 1-155, limits assumed).
T6 sequence (looked up): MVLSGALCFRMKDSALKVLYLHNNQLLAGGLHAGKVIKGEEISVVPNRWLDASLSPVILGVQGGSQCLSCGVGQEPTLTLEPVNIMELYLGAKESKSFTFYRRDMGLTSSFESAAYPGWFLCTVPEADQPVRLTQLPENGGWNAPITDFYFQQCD
Briefly: CDI HuProt native protein microarray. As to the method:
as §1

The target in assay [7] is T7, IL-36a (human, UniProt Q9UHA7 1-158, limits assumed).
T7 sequence (looked up): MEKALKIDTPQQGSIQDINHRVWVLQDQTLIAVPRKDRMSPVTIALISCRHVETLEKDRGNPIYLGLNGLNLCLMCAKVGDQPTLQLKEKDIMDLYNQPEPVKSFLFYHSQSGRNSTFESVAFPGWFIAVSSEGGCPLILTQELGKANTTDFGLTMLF
In words: CDI HuProt native protein microarray. As to the method:
as §1

Assay [8] has as its target T8, IL-37 (human, UniProt Q9NZH6 1-218, limits assumed).
T8 sequence (looked up): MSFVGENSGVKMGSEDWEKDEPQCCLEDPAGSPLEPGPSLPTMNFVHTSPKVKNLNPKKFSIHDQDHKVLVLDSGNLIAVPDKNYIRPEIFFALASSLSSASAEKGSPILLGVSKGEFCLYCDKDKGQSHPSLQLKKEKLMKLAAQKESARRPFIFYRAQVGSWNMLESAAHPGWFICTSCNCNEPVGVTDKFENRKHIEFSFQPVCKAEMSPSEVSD
Briefly: CDI HuProt native protein microarray. The procedure: as §1

Assay [9] addresses T9, IL-36b (human, UniProt Q9NZH7 1-164, limits assumed).
T9 sequence (looked up): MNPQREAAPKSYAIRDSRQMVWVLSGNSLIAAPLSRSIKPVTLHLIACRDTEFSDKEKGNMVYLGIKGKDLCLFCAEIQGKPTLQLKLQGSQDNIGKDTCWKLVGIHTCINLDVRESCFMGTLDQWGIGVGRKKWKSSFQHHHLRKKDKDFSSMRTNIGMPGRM
Briefly: CDI HuProt native protein microarray. The procedure: as §1

Assay [10] deals with T10, IL-36g (human, UniProt Q9NZH8 1-169, limits assumed).
T10 sequence (looked up): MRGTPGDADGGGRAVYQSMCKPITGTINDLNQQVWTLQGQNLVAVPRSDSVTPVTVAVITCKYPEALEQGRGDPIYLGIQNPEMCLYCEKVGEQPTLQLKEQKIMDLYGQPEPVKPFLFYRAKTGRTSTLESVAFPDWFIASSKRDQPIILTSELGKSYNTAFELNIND
In words: CDI HuProt native protein microarray. As to the method: as §1

The target of assay [11] is T11, IL-33 (human, UniProt O95760 1-270, limits assumed).
T11 sequence (looked up): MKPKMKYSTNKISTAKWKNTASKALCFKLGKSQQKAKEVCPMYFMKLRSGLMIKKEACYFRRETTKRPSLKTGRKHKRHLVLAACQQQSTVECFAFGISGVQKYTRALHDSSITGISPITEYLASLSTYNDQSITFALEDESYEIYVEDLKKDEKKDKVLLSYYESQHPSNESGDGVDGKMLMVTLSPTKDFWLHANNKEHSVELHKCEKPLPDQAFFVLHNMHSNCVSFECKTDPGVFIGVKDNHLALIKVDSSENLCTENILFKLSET
Briefly: CDI HuProt native protein microarray. As to the method: as §1

In assay [12] the target is T1, human interleukin-38 (IL-38). Briefly: CDI HuProt native protein microarray, IL-1 family members. The procedure:
as §1

Assay [13] has as its target T2, IL-1α. The assay is described as above. The procedure:
as §1

The target in assay [14] is T3, IL-1β. The description is as above. As to the method:
as §1

Assay [15] deals with T4, IL-1Ra. Described as above. The procedure: as §1
In assay [16] the target is T5, IL-18. The assay is described as above. As to the method:
as §1

Assay [17] addresses T6, IL-36Ra. The description is as above. As to the method:
as §1

For assay [18], the target named is T7, IL-36a. Described as above. The procedure: as §1
Assay [19] has as its target T8, IL-37. Described as above. The procedure:
as §1

For assay [20], the target named is T9, IL-36b. Described as above. The procedure:
as §1

The target of assay [21] is T10, IL-36g. The description is as above. As to the method: as §1
Assay [22] addresses T11, IL-33. The description is as above. As to the method: as §1

B1: IMM20130 (antibody, human IgG1, kappa, V domains shown)
VH: QVQLVQSGAEVKKPGASVKVSCKASGYSFINYGITWVRQVPGQGLEWMGWISAYNVKTKYAPKFQGRVNMNTDTSTRTAYMELRSLRSDDTAVYYCARDRDYDFWSGSAFDIWGQGTMVTVSS
VL: EIVLTQSPGTLSLSPGERVTLSCRASQSISTNYLAWYQQKPGQAPSLLIYGASSRATGIPDRFSGSGSGTDFTLTISRLEPEDFAVYYCQQYGSSPPRTFGQGTKLEIKR
notes: also called PR087-29B5 (parent hybridoma antibody)
As usually defined, the Kd is the equilibrium constant for the complex coming apart. Higher therefore signals a looser complex. In general, kon refers to a measure of how fast the partners come together. Low values mean slower complex formation, high ones faster complex formation. In assay [1], B1 gave a Kd of 13.6 nM and a kon of 4980 M⁻¹ s⁻¹.

B2: CD1-M8 (antibody, V domains shown)
VH: EVQLQQSGPELVKPGASVKMSCKASGYTFTDYYIHWVKQSHGKGLEWIGYIFPNNGGNGYSQKFKGKATMTVDKSSSTAYMELRSLTSEDSAVYYCARGGYDAGFVYWGQGTLVTVSA
VL: DIVMSQSPSSLAVSAGEKVTMSCKSSQSLFNSGARKNFLAWYQQKPGQSPKLLIYWASTRESGVPDRFTGSGSGTDFTLTISSVQAEDLAVYYCKQSYYLITFGAGTKLELK
notes: Mouse monoclonal from a CD-1 mouse hybridoma
As for B2, the binding result in the assay with IL-1α [2], with IL-1β [3], with IL-1Ra [4], in the assay with IL-18 [5], with IL-36Ra [6] and with IL-36a [7] was “no binding” throughout. Further, the binding result in the assay with IL-37 [8], with IL-36b [9], with IL-36g [10] and with IL-33 [11] was “no binding” in each case. Also, the Z-score in assay [12] was 142; in the assay with IL-1α [13], -0.014; in the assay with IL-1β [14], -0.017; in the assay with IL-1Ra [15] it was 0.003; in the assay with IL-18 [16] it was -0.016; in the assay with IL-36Ra [17], -0.019. Besides, the Z-score with IL-36a [18] is 0.012; in the assay with IL-37 [19] it was -0.016; with IL-36b [20] it was -0.01; with IL-36g [21] it was -0.008; in the assay with IL-33 [22] it was -0.014.

B3: NZB-M8 (antibody, V domains shown)
VH: EVQLQQSGPELVKPGASVKISCKASGYSFTGYYMHWVKQSPEKSLEWIGVINPNTGGITYNQKFKAKATLNVDKSSSTAYMQLKSLTSEDSAVYYCARSMGVWGQGTLVTVSA
VL: DIVMTQAAPSVSVTPGESVSISCRSSKSLLHSNGNTYLYWFLQRPGQSPQLLIYRMSNLASGVPDRFSGSGSGTAFTLRISRVEAEDVGVYYCMQYLEYPFTFGSGTKLEIK
notes: Mouse monoclonal from an NZB/w mouse hybridoma
For B3, the binding result with IL-1α [2], with IL-1β [3], with IL-1Ra [4], with IL-18 [5], with IL-36Ra [6] and with IL-36a [7] was “no binding” in each case. Also, the binding result with IL-37 [8], with IL-36b [9], in the assay with IL-36g [10] and with IL-33 [11] was “no binding” throughout. Further, the Z-score in [12] is 34; with IL-1α [13], -0.147; in the assay with IL-1β [14], -0.143; in the assay with IL-1Ra [15] it was -0.166; in the assay with IL-18 [16], -0.132; in the assay with IL-36Ra [17], -0.034. The Z-score in the assay with IL-36a [18] is 0.033; with IL-37 [19] it was -0.113; with IL-36b [20], -0.087; with IL-36g [21], -0.143; with IL-33 [22], -0.17.
